2 molecules from article PMC9513805, “A natural transdifferentiation event involving mitosis is empowered by integrating signaling inputs with conserved plasticity factors” can be followed below.

The target of data set [1] is T1, SOX-2;HMG-POP-1-FLAG (Caenorhabditis elegans;Caenorhabditis …, UniProt Q21305;Q10666 1-283;181-281, |). In words: EMSA; co-incubation; upper co-binding band, supershift series with anti-HA and/or anti-FLAG; 20 mM Tris-HCl pH 8.0, 100 mM NaCl, 100 ug/mL BSA, 1 mM EDTA, 1 mM DTT, 0.1% NP-40; 20 min on ice (supershift 30 min at room temperature), 200 ng Cy5 probe; 6%. The settings on record: protein: recombinant;recombinant; tags: N-terminal 6xHis, C-terminal HA (pSJ6094);N-terminal 6xHis, C-terminal FLAG (pSJ1107); copies: 1;1; label: Cy5 on forward strand; blunt.

For data set [2], the target named is T1, SOX-2;HMG-POP-1-FLAG. The data set can be described thus: EMSA supershift; anti-FLAG; 20 mM Tris-HCl pH 8.0, 100 mM NaCl, 100 ug/mL BSA, 1 mM EDTA, 1 mM DTT, 0.1% NP-40; 20 min on ice (supershift 30 min at room temperature), 200 ng Cy5 probe; 6%. Conditions: protein: recombinant;recombinant; tags: N-terminal 6xHis, C-terminal HA (pSJ6094);N-terminal 6xHis, C-terminal FLAG (pSJ1107); copies: 1;1; label: Cy5 on forward strand; blunt.

Another data set concerns the target SOX-2;HMG-POP-1 (Caenorhabditis elegans;Caenorhabditis …, UniProt Q21305;Q10666 1-283;181-281, |). In words: EMSA; SOX-2 125-500 nM added to HMG-POP-1; upper shift, most probably ternary complex; 20 mM Tris-HCl pH 8.0, 100 mM NaCl, 100 ug/mL BSA, 1 mM EDTA, 1 mM DTT, 0.1% NP-40; 20 min on ice (supershift 30 min at room temperature), 200 ng Cy5 probe; 6%. The settings on record: protein: recombinant;recombinant; tags: N-terminal 6xHis, C-terminal HA (pSJ6094);N-terminal 6xHis (pSJ769); copies: 1;1; label: Cy5 on forward strand; blunt.

T1 sequence (Q21305 whole entry, chain 1 of 2): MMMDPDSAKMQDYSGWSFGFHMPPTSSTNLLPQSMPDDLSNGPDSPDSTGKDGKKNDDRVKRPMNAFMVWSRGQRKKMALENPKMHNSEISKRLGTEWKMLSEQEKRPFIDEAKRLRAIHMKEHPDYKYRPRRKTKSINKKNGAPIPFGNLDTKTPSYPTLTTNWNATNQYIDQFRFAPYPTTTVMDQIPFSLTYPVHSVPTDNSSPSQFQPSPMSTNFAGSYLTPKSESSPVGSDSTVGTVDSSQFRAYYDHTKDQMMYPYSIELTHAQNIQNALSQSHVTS
T1 sequence (Q10666 181-281, chain 2 of 2): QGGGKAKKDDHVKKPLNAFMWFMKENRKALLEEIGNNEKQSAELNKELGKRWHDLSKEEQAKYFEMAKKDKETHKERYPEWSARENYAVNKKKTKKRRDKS
SOX-2;HMG-POP-1, sequence (Q21305 whole entry, chain 1 of 2): as the sequence (Q21305 whole entry, chain 1 of 2) above
SOX-2;HMG-POP-1, sequence (Q10666 181-281, chain 2 of 2): as the sequence (Q10666 181-281, chain 2 of 2) above

B1: lim-6 intron 4 probe 2 (dsDNA)
DNA 1: CTGCTACCGTAGTGCTTTGTTGATTTAACACACA
DNA 2: TGTGTGTTAAATCAACAAAGCACTACGGTAGCAG
As to B1, the binding result in the data set with SOX-2;HMG-POP-1-FLAG [1] is “binds”.

B2: lim-6 intron 4 probe 1 (dsDNA)
DNA 1: TACGATTTGCAAACAACAAACATTCCAGACAGAT
DNA 2: ATCTGTCTGGAATGTTTGTTGTTTGCAAATCGTA
With B2, the binding result with SOX-2;HMG-POP-1-FLAG [2] and in the data set with SOX-2;HMG-POP-1 was “binds” in each case.
